For the experiment, the target named is myosin S2 tail domain (UniProt P12883). The experiment can be described thus: MST; Monolith NT.115; 100 nmol/L Alexa647-labeled protein fixed, partner titrated (which was labeled is not told); 20 mmol/L Mops pH 7, 1 mmol/L MgCl2, 50 mmol/L KCl, 1 mmol/L DTT, 0.05% Tween-20; various nucleotides, with and without F10.

Data on one substance can be found in PMC10673995, “Discovery of a novel cardiac-specific myosin modulator using artificial intelligence-based virtual screening” (Nature Communications, 2023).

Chain of myosin S2 tail domain (P12883 whole entry, the tested form may be a part): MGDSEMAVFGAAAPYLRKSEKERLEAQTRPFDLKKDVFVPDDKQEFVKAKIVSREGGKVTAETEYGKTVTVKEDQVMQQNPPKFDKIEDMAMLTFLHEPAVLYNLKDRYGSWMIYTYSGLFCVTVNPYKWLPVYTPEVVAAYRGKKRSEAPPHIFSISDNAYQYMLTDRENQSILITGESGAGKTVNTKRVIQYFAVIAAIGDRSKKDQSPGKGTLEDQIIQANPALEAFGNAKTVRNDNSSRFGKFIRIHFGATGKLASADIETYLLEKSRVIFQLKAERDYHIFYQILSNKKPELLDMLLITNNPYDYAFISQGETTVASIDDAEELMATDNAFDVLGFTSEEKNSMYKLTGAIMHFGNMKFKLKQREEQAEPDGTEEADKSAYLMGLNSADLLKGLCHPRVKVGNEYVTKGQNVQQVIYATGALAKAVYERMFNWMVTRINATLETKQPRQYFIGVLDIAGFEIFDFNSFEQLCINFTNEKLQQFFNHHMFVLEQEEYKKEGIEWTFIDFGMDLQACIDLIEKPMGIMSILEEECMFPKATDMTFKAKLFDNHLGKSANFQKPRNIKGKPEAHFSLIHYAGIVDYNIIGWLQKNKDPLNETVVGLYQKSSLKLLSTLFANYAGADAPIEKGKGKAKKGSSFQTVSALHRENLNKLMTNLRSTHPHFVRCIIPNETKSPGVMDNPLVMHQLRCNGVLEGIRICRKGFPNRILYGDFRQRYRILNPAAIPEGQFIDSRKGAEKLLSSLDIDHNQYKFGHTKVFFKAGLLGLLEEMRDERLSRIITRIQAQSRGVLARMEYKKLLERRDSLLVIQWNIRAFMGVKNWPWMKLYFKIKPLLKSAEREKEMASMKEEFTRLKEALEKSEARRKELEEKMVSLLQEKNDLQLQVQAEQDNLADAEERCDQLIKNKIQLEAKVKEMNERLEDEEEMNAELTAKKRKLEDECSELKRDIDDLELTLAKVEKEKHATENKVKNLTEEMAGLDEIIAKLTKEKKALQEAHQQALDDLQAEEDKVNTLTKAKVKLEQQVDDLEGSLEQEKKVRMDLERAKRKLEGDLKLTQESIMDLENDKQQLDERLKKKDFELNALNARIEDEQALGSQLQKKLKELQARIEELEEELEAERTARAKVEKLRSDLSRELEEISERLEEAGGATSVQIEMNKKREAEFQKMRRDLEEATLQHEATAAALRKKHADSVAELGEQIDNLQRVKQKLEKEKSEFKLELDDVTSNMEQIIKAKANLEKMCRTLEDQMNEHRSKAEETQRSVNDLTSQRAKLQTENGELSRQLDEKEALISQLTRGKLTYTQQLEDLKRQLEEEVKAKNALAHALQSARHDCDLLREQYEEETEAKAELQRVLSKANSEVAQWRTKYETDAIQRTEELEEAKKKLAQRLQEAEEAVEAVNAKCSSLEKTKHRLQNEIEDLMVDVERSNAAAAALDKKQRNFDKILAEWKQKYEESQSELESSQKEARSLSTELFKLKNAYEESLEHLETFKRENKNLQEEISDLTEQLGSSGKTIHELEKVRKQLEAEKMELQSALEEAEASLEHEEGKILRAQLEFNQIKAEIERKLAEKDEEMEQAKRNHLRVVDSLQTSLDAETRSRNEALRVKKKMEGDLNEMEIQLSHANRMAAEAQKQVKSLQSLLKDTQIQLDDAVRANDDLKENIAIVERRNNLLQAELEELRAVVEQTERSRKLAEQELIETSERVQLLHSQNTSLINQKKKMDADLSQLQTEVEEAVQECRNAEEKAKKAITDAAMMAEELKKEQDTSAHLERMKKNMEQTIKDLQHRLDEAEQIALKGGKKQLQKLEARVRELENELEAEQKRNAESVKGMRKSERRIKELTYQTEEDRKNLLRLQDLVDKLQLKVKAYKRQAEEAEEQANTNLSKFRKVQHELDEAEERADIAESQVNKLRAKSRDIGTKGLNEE

In the case of “bovine β-cardiac myosin S1 (from UniProt Q9BE39 1-1935; P85100 1-199) (domain or fragment)”, the Kd (in general, the equilibrium constant for the complex coming apart) is 15 µM.
